The record followed here is US20190263934A1.

Assay [1] concerns the target biotinylated human FcRn (hFcRn; p51 subunit residues 24-297 with C-terminal Avi-tag, β2-m residues 21-119) (human) (UniProt P55899). The assay is described as follows: Biacore SPR, human FcRn, pH 7.4, steady state.
Assay [2] shares this target. Kind of assay: Biacore SPR, Biotin CAPture, pH 7.4, 1000 nM antibody, steady state.
For assay [3], the target named is rFcRn (rat) (UniProt P13599). Kind of assay: SPR Biacore, pH 6.0.
Target sequence in this assay (P13599 23-298 limits assumed, form in doubt, chain 1 of 2): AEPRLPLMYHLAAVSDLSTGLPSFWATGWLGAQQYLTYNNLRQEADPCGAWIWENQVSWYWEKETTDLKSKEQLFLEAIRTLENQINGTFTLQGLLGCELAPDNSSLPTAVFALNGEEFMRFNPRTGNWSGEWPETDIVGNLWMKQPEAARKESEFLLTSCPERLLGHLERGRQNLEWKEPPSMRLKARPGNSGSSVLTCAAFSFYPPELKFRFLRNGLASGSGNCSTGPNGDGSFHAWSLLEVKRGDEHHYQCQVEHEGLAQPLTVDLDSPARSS
Target sequence in this assay (P07151 21-119 limits assumed, form in doubt, chain 2 of 2, further chain): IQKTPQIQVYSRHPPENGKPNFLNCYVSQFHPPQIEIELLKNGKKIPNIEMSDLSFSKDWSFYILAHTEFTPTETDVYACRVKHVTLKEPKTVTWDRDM
For assay [4], the target named is biotinylated hFcRn (human) (UniProt P55899). The assay is described as follows: SPR Biacore, pH 7.4.
Target sequence in this assay (P55899 24-297 limits assumed, form in doubt, chain 1 of 2): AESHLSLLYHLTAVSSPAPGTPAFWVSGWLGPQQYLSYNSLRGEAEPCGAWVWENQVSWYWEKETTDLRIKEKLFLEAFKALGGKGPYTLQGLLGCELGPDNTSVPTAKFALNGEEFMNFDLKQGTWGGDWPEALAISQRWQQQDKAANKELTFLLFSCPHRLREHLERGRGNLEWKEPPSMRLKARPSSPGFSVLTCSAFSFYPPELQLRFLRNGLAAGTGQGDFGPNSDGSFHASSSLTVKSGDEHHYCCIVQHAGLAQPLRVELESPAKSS
Target sequence in this assay (P61769 21-119 limits assumed, form in doubt, chain 2 of 2, further chain): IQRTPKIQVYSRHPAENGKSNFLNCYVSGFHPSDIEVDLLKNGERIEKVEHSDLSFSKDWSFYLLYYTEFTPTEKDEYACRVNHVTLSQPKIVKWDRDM
The target in assay [5] is rFcRn (rat) (UniProt P13599). Kind of assay: SPR Biacore, pH 7.4.
Target sequence in this assay (P13599 23-298 limits assumed, form in doubt, chain 1 of 2): as the sequence (P13599 23-298 limits assumed, form in doubt, chain 1 of 2) above
Target sequence in this assay (P07151 21-119 limits assumed, form in doubt, chain 2 of 2, further chain): as the sequence (P07151 21-119 limits assumed, form in doubt, chain 2 of 2, further chain) above
Assay [6] has as its target biotinylated hFcRn (human) (UniProt P55899). The assay is described as follows: SPR Biacore, pH 6.0.
Target sequence in this assay (P55899 24-297 limits assumed, form in doubt, chain 1 of 2): as the sequence (P55899 24-297 limits assumed, form in doubt, chain 1 of 2) above
Target sequence in this assay (P61769 21-119 limits assumed, form in doubt, chain 2 of 2, further chain): as the sequence (P61769 21-119 limits assumed, form in doubt, chain 2 of 2, further chain) above
Assay [7] concerns the target rFcRn (rat) (UniProt P13599). Kind of assay: Biacore SPR, pH 6.0, bivalent fit.
Target sequence in this assay (P13599 23-298, form in doubt, chain 1 of 2): as the sequence (P13599 23-298 limits assumed, form in doubt, chain 1 of 2) above
Target sequence in this assay (P07151 21-119, form in doubt, chain 2 of 2, further chain): as the sequence (P07151 21-119 limits assumed, form in doubt, chain 2 of 2, further chain) above
The target in assay [8] is biotinylated hFcRn (human) (UniProt P55899). Kind of assay: SPR Biacore, pH 7.4, 1000 nM antibody.
Target sequence in this assay (P55899 24-297 limits assumed, form in doubt, chain 1 of 2): as the sequence (P55899 24-297 limits assumed, form in doubt, chain 1 of 2) above
Target sequence in this assay (P61769 21-119 limits assumed, form in doubt, chain 2 of 2, further chain): as the sequence (P61769 21-119 limits assumed, form in doubt, chain 2 of 2, further chain) above
The target of assay [9] is rFcRn (rat) (UniProt P13599). Kind of assay: SPR Biacore, pH 7.4, 1000 nM antibody.
Target sequence in this assay (P13599 23-298 limits assumed, form in doubt, chain 1 of 2): as the sequence (P13599 23-298 limits assumed, form in doubt, chain 1 of 2) above
Target sequence in this assay (P07151 21-119 limits assumed, form in doubt, chain 2 of 2, further chain): as the sequence (P07151 21-119 limits assumed, form in doubt, chain 2 of 2, further chain) above
For assay [10], the target named is biotinylated hFcRn (human) (UniProt P55899). Kind of assay: Biacore SPR, pH 6.0, bivalent fit.
Target sequence in this assay (P55899 24-297, form in doubt, chain 1 of 2): as the sequence (P55899 24-297 limits assumed, form in doubt, chain 1 of 2) above
Target sequence in this assay (P61769 21-119, form in doubt, chain 2 of 2, further chain): as the sequence (P61769 21-119 limits assumed, form in doubt, chain 2 of 2, further chain) above
For assay [11] the target is unchanged. The assay is described as follows: Biacore SPR, pH 7.4, single antibody concentration, steady state.
Target sequence in this assay (P55899 24-297, form in doubt, chain 1 of 2): as the sequence (P55899 24-297 limits assumed, form in doubt, chain 1 of 2) above
Target sequence in this assay (P61769 21-119, form in doubt, chain 2 of 2, further chain): as the sequence (P61769 21-119 limits assumed, form in doubt, chain 2 of 2, further chain) above
For assay [12], the target named is rFcRn (rat) (UniProt P13599). The description is as above.
Target sequence in this assay (P13599 23-298, form in doubt, chain 1 of 2): as the sequence (P13599 23-298 limits assumed, form in doubt, chain 1 of 2) above
Target sequence in this assay (P07151 21-119, form in doubt, chain 2 of 2, further chain): as the sequence (P07151 21-119 limits assumed, form in doubt, chain 2 of 2, further chain) above
For assay [13], the target named is Human CD16a (FcγRIIIa) V158 with C-terminal HPC4 tag (human) (UniProt P08637). The assay is described as follows: Biacore SPR, captured HPC4-tagged FcγRIIIa-V158, steady-state fit.
Chain of Human CD16a (FcγRIIIa) V158 with C-terminal HPC4 tag (human) (P08637 17-208 F176V): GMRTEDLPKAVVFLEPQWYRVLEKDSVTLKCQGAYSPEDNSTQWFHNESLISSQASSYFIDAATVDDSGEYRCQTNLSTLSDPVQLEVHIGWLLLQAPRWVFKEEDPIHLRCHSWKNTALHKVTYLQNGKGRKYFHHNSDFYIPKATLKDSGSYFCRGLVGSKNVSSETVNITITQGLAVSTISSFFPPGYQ
The target in assay [14] is biotinylated human FcRn (hFcRn; p51 subunit residues 24-297 with C-terminal Avi-tag, β2-m residues 21-119) (human) (UniProt P55899). Kind of assay: Biacore SPR, pH 6.0, apparent affinity.
Chain of biotinylated human FcRn (hFcRn; p51 subunit residues 24-297 with C-terminal Avi-tag, β2-m residues 21-119) (human) (P55899 24-297, form in doubt, chain 1 of 2): as the sequence (P55899 24-297 limits assumed, form in doubt, chain 1 of 2) above
Chain of biotinylated human FcRn (hFcRn; p51 subunit residues 24-297 with C-terminal Avi-tag, β2-m residues 21-119) (human) (P61769 21-119, form in doubt, chain 2 of 2, further chain): as the sequence (P61769 21-119 limits assumed, form in doubt, chain 2 of 2, further chain) above
Assay [15] shares this target. Kind of assay: Biacore SPR; second ratio column (inverse of c7).
Assay [16] shares this target. Kind of assay: Biacore SPR, pH 7.4, steady state, 1000 nM antibody.
Assay [17] shares this target. The assay is described as follows: Biacore SPR, Biotin CAPture of biotinylated human FcRn, pH 6.0.
Assay [18] shares this target. The assay is described as follows: Biacore SPR; pH 6.0 affinity (M^-1) over pH 7.4 steady state RU.
Assay [19] deals with biotinylated hFcRn (human) (UniProt P55899). Kind of assay: SPR Biacore, pH 6.0. This is another data set of the same source.
Target sequence in this assay (P55899 24-297 limits assumed, form in doubt, chain 1 of 2): as the sequence (P55899 24-297 limits assumed, form in doubt, chain 1 of 2) above
Target sequence in this assay (P61769 21-119 limits assumed, form in doubt, chain 2 of 2, further chain): as the sequence (P61769 21-119 limits assumed, form in doubt, chain 2 of 2, further chain) above
For assay [20], the target named is biotinylated human FcRn (hFcRn; p51 subunit residues 24-297 with C-terminal Avi-tag, β2-m residues 21-119) (human) (UniProt P55899). Kind of assay: Biacore SPR, human FcRn, pH 6.0 (column 'Affinity, pH 6.0 (nM)').
In assay [21] the target is rFcRn (rat) (UniProt P13599). Kind of assay: BLI Octet, pH 6.0, purified antibody.
Target sequence in this assay (P13599 23-298 limits assumed, form in doubt, chain 1 of 2): as the sequence (P13599 23-298 limits assumed, form in doubt, chain 1 of 2) above
Target sequence in this assay (P07151 21-119 limits assumed, form in doubt, chain 2 of 2, further chain): as the sequence (P07151 21-119 limits assumed, form in doubt, chain 2 of 2, further chain) above

Where only a bound is given, the exact number is not on record here.

In assay [1], “mAb1 YEWY variant (M252Y/T256E/T307W/N434Y) (antibody)” came in with a Steady State RU (pH 7.4) of 98.2 RU. Moreover, the pH 7.4 RU in [2] worked out at 98.2 RU.

mAb1 T256E (antibody): the figures for the Kd (with rFcRn (rat) [3]; in [6]; with rFcRn (rat) [7]) were 113 nM, over 3000 nM and 113 nM, respectively. Also, the Steady State RU was 4.5 RU in assay [4], 17 RU in the assay with rFcRn (rat) [5], 4.8 RU in assay [8] and 23 RU with rFcRn (rat) [9].

Consider mAb1 AAA (T307A/E380A/N434A) (antibody), for which the Kd in assay [10] amounted to 1780 nM; in the assay with rFcRn (rat) [7], 77 nM; in [13] it was 450 nM. In addition, the koff in assay [10] worked out at 0.14 s⁻¹; with rFcRn (rat) [7] it was 0.0117 s⁻¹. Moreover, the kon in assay [10] was 84000 M⁻¹ s⁻¹; in the assay with rFcRn (rat) [7], 157000 M⁻¹ s⁻¹. Besides, the Steady State RU (pH 7.4) in assay [11] stood at 13.9 RU; with rFcRn (rat) [12], 23.6 RU.

mAb1 LS (M428L/N434S) (antibody): the Kd in assay [10] amounted to 272 nM; with rFcRn (rat) [7], 74 nM; in assay [13], 369 nM. In addition, the koff was found to be 0.05 s⁻¹ in [10] and 0.0066 s⁻¹ with rFcRn (rat) [7]. For the same substance, the kon amounted to 193000 M⁻¹ s⁻¹ in [10] and 91000 M⁻¹ s⁻¹ in the assay with rFcRn (rat) [7]. The Steady State RU (pH 7.4) in assay [11] stood at 18.3 RU; with rFcRn (rat) [12], 24.8 RU.

On to “mAb1 YDQN (M252Y/T256D/T307Q) (antibody)”, for which the Kd in assay [10] is 115 nM; with rFcRn (rat) [7], 5.1 nM; in [13] it was 1060 nM. Besides, the koff in [10] was 0.28 s⁻¹; with rFcRn (rat) [7], 0.0003 s⁻¹. Further, the values for the kon (in [10]; in the assay with rFcRn (rat) [7]) were 25000 M⁻¹ s⁻¹ and 5000 M⁻¹ s⁻¹, respectively. Further, the results for the Steady State RU (pH 7.4) (in assay [11]; with rFcRn (rat) [12]) were 19.8 RU and 65.2 RU, respectively.

“mAb1 MDWY variant (T256D/T307W/N434Y) (antibody)”: in assay [14], the Ka was determined as 8.4e+07 M⁻¹. Also, the Ratio (pH 7.4/pH 6.0) in [15] turned out to be 7.02e-07. In addition, in assay [16], the Steady State Binding, pH 7.4 (RU) was 59 RU. Moreover, the Kd in [17] is 18.1 nM. The Ratio (pH 6.0/pH 7.4) in assay [18] was 1.42e+06. The pH 7.4 RU in [2] stood at 59.8 RU.

For the substance “mAb1 YTTY variant (M252Y/N434Y) (antibody)”, the Ka in assay [14] is 1.2e+08 M⁻¹. Besides, the Ratio (pH 7.4 RU / pH 6.0 affinity) in [15] stood at 4.51e-07. The Steady State Binding, pH 7.4 (RU) in [16] worked out at 54.1 RU. The substance further gave a Kd in [17] of 22.9 nM. In [18], the Ratio (pH 6.0/pH 7.4) came out at 2.22e+06. In assay [2], this substance came in with a pH 7.4 RU of 54.4 RU.

For “mAb1 YDTY variant (M252Y/T256D/N434Y) (antibody)”, the Ka in assay [14] is 9.01e+07 M⁻¹. For the same substance, the Steady State Binding, pH 7.4 (RU) in assay [16] is 65.4 RU. This substance gave a pH 7.4 RU in assay [2] of 69.7 RU.

As to “mAb1 YEQN (M252Y/T256E/T307Q) (antibody)”, the Kd stood at 218 nM in assay [10], 7.8 nM with rFcRn (rat) [7] and 1620 nM in assay [13]. Moreover, the koff came to 0.41 s⁻¹ in [10] and 0.0004 s⁻¹ in the assay with rFcRn (rat) [7]. In addition, the kon in assay [10] is 19000 M⁻¹ s⁻¹; with rFcRn (rat) [7], 5000 M⁻¹ s⁻¹. Besides, the Steady State RU (pH 7.4) was determined as 15.2 RU in [11] and 61.8 RU in the assay with rFcRn (rat) [12].

Turning to mAb1 T307Q (antibody), the Kd in assay [19] is 5720 nM; with rFcRn (rat) [3], 58 nM; in [6], over 3000 nM; in assay [10], 5720 nM; in the assay with rFcRn (rat) [7], 58 nM. The Steady State RU in assay [4] stood at 6.6 RU; with rFcRn (rat) [5], 31.3 RU; in assay [8] it was 6.4 RU; in the assay with rFcRn (rat) [9] it was 24.3 RU.

Turning to “mAb1 YEQY variant (M252Y/T256E/T307Q/N434Y) (antibody)”, the Steady State RU (pH 7.4) in [1] came out at 93.6 RU. Besides, the Kd in [17] and in [20] was 4.8 nM throughout. In assay [2], this substance gave a pH 7.4 RU of 93.6 RU.

“YTEKF benchmark (MST-HN variant; M252Y/S254T/T256E/H433K/N434F) (antibody)” registered a Steady State RU (pH 7.4) in assay [1] of 89.9 RU. Moreover, the Kd in [17] and in assay [20] was 14.8 nM in each case. The substance also gave a pH 7.4 RU in [2] of 89.9 RU.

With mAb1 MDQN (T256D/T307Q) (antibody), the Kd worked out at 232 nM in [10], 9.5 nM with rFcRn (rat) [7] and 600 nM in assay [13]. Moreover, the kon was 38000 M⁻¹ s⁻¹ in assay [10] and 13000 M⁻¹ s⁻¹ with rFcRn (rat) [7]. In addition, in the assay with rFcRn (rat) [7], the koff was determined as 0.0013 s⁻¹. For the same substance, the values for the Steady State RU (pH 7.4) (in [11]; with rFcRn (rat) [12]) were 10.7 RU and 39.1 RU, respectively.

With mAb1 MDWN (T256D/T307W) (antibody), the Kd in assay [10] was 169 nM; in the assay with rFcRn (rat) [7], 8.2 nM; in assay [13], 512 nM. In addition, the kon came to 53000 M⁻¹ s⁻¹ in [10] and 16000 M⁻¹ s⁻¹ with rFcRn (rat) [7]. The same substance returned a koff with rFcRn (rat) [7] of 0.0013 s⁻¹. Further, the Steady State RU (pH 7.4) in [11] was determined as 12.2 RU; in the assay with rFcRn (rat) [12] it was 42.1 RU.

In the case of mAb1 YETN (M252Y/T256E) (antibody), the figures for the Kd (in assay [10]; with rFcRn (rat) [7]; in [13]) were 128 nM, 8.4 nM and 878 nM, respectively. Also, the kon came out at 59000 M⁻¹ s⁻¹ in assay [10] and 32000 M⁻¹ s⁻¹ with rFcRn (rat) [7]. Further, the koff with rFcRn (rat) [7] was 0.0027 s⁻¹. Also, the Steady State RU (pH 7.4) in assay [11] came to 9.8 RU; in the assay with rFcRn (rat) [12], 55.1 RU.

For the substance “mAb1 YTWY variant (M252Y/T307W/N434Y) (antibody)”, the Ka in assay [14] amounted to 1.06e+08 M⁻¹. For the same substance, in assay [16], the Steady State Binding, pH 7.4 (RU) amounted to 75.1 RU. Besides, the pH 7.4 RU in assay [2] is 77.1 RU.

For the substance mAb1 YTWN (M252Y/T307W) (antibody), the values for the Kd (in [10]; with rFcRn (rat) [7]; in [13]) were 118 nM, 5.2 nM and 896 nM, respectively. For the same substance, the results for the kon (in assay [10]; with rFcRn (rat) [7]) were 48000 M⁻¹ s⁻¹ and 21000 M⁻¹ s⁻¹, respectively. Further, in the assay with rFcRn (rat) [7], the koff came to 0.0011 s⁻¹. In addition, the Steady State RU (pH 7.4) in assay [11] was determined as 15.9 RU; with rFcRn (rat) [12], 66.1 RU.

Turning to “mAb1 YDWF variant (M252Y/T256D/T307W/N434F) (antibody)”, in assay [14], the Ka came to 1.66e+08 M⁻¹. In [16], this substance registered a Steady State Binding, pH 7.4 (RU) of 71.8 RU. The substance also returned a pH 7.4 RU in assay [2] of 75.7 RU.

On to mAb1 T307E (antibody), for which the Kd in [19] turned out to be 8130 nM; in the assay with rFcRn (rat) [3] it was 141 nM; in assay [10] it was 8130 nM; with rFcRn (rat) [7], 141 nM. Further, the koff in assay [19] was 0.298 s⁻¹; in the assay with rFcRn (rat) [3], 0.00603 s⁻¹; in [10] it was 0.3 s⁻¹; with rFcRn (rat) [7] it was 0.006 s⁻¹; in the assay with rFcRn (rat) [21] it was 0.00329 s⁻¹. The kon was determined as 43700 M⁻¹ s⁻¹ in [19], 55500 M⁻¹ s⁻¹ with rFcRn (rat) [3], 44000 M⁻¹ s⁻¹ in assay [10] and 56000 M⁻¹ s⁻¹ in the assay with rFcRn (rat) [7]. The results for the Steady State RU (in [8]; in the assay with rFcRn (rat) [9]) were 5.7 RU and 21.5 RU, respectively.

For mAb1 YDTN (M252Y/T256D) (antibody), the Kd in the assay with rFcRn (rat) [7] came to 5.9 nM; in assay [13] it was 1060 nM. Also, the values for the Steady State RU (pH 7.4) (in [11]; in the assay with rFcRn (rat) [12]) were 9.7 RU and 56 RU, respectively.

Regarding mAb1 YTE (M252Y/S254T/T256E) (antibody), the Kd in assay [10] came out at 342 nM; with rFcRn (rat) [7] it was 18 nM; in assay [13], 1040 nM. The figures for the koff (in [10]; with rFcRn (rat) [7]) were 0.05 s⁻¹ and 0.0012 s⁻¹, respectively. Moreover, the kon in assay [10] was 143000 M⁻¹ s⁻¹; with rFcRn (rat) [7], 65000 M⁻¹ s⁻¹. For the same substance, the results for the Steady State RU (pH 7.4) (in assay [11]; in the assay with rFcRn (rat) [12]) were 13.2 RU and 53.9 RU, respectively.
